In patent publication US20240092876A1 (priority 2020, published 2024):
pKd: −log10 of the molar value. Several values for one entry are separate records, joined by “and”; a condition that tells them apart may be missing. Identical values can stand only once. Like-named read-outs stand apart in the source and are kept apart here.

How the values were obtained:
H3N2 A/Hong Kong/8/68 = test system: H3N2 A/Hong Kong/8/68; set-up: species or system influenza A virus; settings: in vivo, po, 10 mg/kg
[1] = test system: B/Brisbane/60/2008 (Victoria); set-up: species or system influenza B virus; settings: in vivo, po, 10 mg/kg
H1N1 A/Puerto Rico/8/34 = test system: H1N1 A/Puerto Rico/8/34; set-up: species or system influenza A virus; settings: in vivo, po, 10 mg/kg
[2] = test system: B/Victoria/504/2000 (Yamagata); set-up: species or system influenza B virus; settings: in vivo, po, 10 mg/kg
[3] = target: N1 neuraminidase from A/Swine/Jiangsu/J004/2018 (Influenza A virus A/Swine/Jiangsu/J004/2018 (H1N1))
[4] = target: N1 neuraminidase from A/Swine/Jiangsu/J004/2018 (Influenza A virus A/Swine/Jiangsu/J004/2018 (H1N1)); remark: listed apart in the source
[5] = target: N2 A/South Australia/34/2019 (245Gly+) (Influenza A virus A/South Australia/34/2019)
[6] = target: N2 A/South Australia/34/2019 (245Gly+) (Influenza A virus A/South Australia/34/2019); remark: listed apart in the source
[7] = target: B/Lee/10/1940(Ancestral) (influenza B virus); assay: flow cytometry on NA-expressing cells
[8] = target: N1_A_Stockholm_18_2007 (influenza A virus); assay: flow cytometry on NA-expressing cells
[9] = target: N1_NA_A_swine_Hebei_0116_2017 (influenza A virus); assay: flow cytometry on NA-expressing cells
[10] = target: N7_A_Netherlands_078_03 (influenza A virus); assay: flow cytometry on NA-expressing cells
[11] = target: N9 neuraminidase from A/Anhui/1/2013 (Influenza A virus A/Anhui/1/2013 (H7N9)); assay: flow cytometry on NA-expressing cells
[12] = target: B/Yamanashi/166/1998(Yamagata) (influenza B virus); assay: flow cytometry on NA-expressing cells
[13] = target: N1 neuraminidase from A/Swine/Jiangsu/J004/2018 (Influenza A virus A/Swine/Jiangsu/J004/2018 (H1N1)); assay: flow cytometry on NA-expressing cells
[14] = target: N2_A_Leningrad_134_17_57 (influenza A virus); assay: flow cytometry on NA-expressing cells
[15] = target: B/Malaysia/2506/2004(Victoria) (influenza B virus); assay: flow cytometry on NA-expressing cells
[16] = target: N2_NA_A_South_Australia_34_2019 (influenza A virus); assay: flow cytometry on NA-expressing cells
[17] = target: N1 neuraminidase from A/California/07/2009 (Influenza A virus A/California/07/2009 (H1N1)); assay: flow cytometry on NA-expressing cells
[18] = target: N3_A_Canada_rv504_2004 (influenza A virus); assay: flow cytometry on NA-expressing cells
[19] = target: N6_A_Swine_Ontario_01911_1_99 (influenza A virus); assay: flow cytometry on NA-expressing cells
[20] = target: N2 neuraminidase from A/Washington/01/2007 (Influenza A virus A/Washington/01/2007); assay: flow cytometry on NA-expressing cells
[21] = target: N8_A_harbor_seal_New_hampshire_179629_2011 (influenza A virus); assay: flow cytometry on NA-expressing cells

Compound: 1G01 (antibody)
- pKd (N2): > 12.00
- koff (N2): < 1e-07 s⁻¹
- kon (N2): 40200 M⁻¹ s⁻¹

Compound: CCOC(=O)C1=C[C@@H](OC(CC)CC)[C@H](NC(C)=O)[C@@H](N)C1 [OSE, oseltamivir]
- reduction in viral titres in comparison to the vehicle (H3N2 A/Hong Kong/8/68): 1 log
- reduction in viral titres in comparison to the vehicle [1]: exception
- reduction in viral titres in comparison to the vehicle (H1N1 A/Puerto Rico/8/34): 1 log
- reduction in viral titres in comparison to the vehicle [2]: 1 log

Compound: FNI3 (antibody)
- Alexa 647-A+ (percent of cells in the positive gate) [3]: 83.9% and 85.2%
- Alexa 647-A+ (percent of cells in the positive gate) [4]: 83.7% and 79.6%
- Alexa 647-A+ (percent of cells in the positive gate) [5]: 59.2% and 54%
- Alexa 647-A+ (percent of cells in the positive gate) [6]: 49.1% and 48.4%
- MFI normalized vs wt [7]: 1
- MFI normalized vs wt [8]: 1
- MFI normalized vs wt [9]: 1
- MFI normalized vs wt [10]: 1
- MFI normalized vs wt [11]: 1
- MFI normalized vs wt [12]: 1
- MFI normalized vs wt [13]: 1
- MFI normalized vs wt [14]: 1
- MFI normalized vs wt [15]: 1
- MFI normalized vs wt [16]: 1
- MFI normalized vs wt [17]: 1
- MFI normalized vs wt [18]: 1
- MFI normalized vs wt [19]: 1
- MFI normalized vs wt [20]: 1
- MFI normalized vs wt [21]: 1
- pKd (N2): > 12.00
- koff (N2): < 1e-07 s⁻¹
- kon (N2): 11500 M⁻¹ s⁻¹

Compound: FNI9 (antibody)
- Alexa 647-A+ (percent of cells in the positive gate) [3]: 84% and 83.5%
- Alexa 647-A+ (percent of cells in the positive gate) [4]: 82.1% and 78%
- Alexa 647-A+ (percent of cells in the positive gate) [5]: 66.1% and 71.3%
- Alexa 647-A+ (percent of cells in the positive gate) [6]: 68.8% and 57%
- pKd (N2): > 12.00
